{
  "source": "the DeepSol protein solubility set",
  "data": [
    {"assay": "soluble on expression in E. coli; label from the status in PepcDB or PDB records", "values": [
      {"sequence": "MKTIFSGIQPSGVITIGNYIGALRQFVELQHEYNCYFCIVDQHAITVWQDPHELRQNIRRLAALYLAVGIDPTQATLFIQSEVPAHAQAAWMLQCIVYIGELERMTQFKEKSAGKEAVSAGLLTYPPLMAADILLYNTDIVPVGEDQKQHIELTRDLAERFNKRYGELFTIPEARIPKVGARIMSLVDPTKKMSKSDPNPKAYITLLDDAKTIEKKIKSAVTDSEGTIRYDKEAKPGISNLLNIYSTLSGQSIEELERQYEGKGYGVFKADLAQVVIETLRPIQERYHHWMESEELDRVLDEGAEKANRVASEMVRKMEQAMGLGRRR", "soluble on expression in E. coli": "soluble"},
      {"sequence": "MKTINVFHYDAFTNKPNMGNPAGIVLDADGLTEEEMQRIAEKVGFNETSFVLSSEVADIRMRYFTPGYEMDLCGHGTVGTIYALRERGLLEEKASLTIETKAGILPIQIGVNENGETFIKMRQTAPQFKDFAGSKEELAHSIGLEVNDLDVSLPIVYGSTGNWTVIVPVKNLDVCERMKPNNEVFPSVLKEIPNASIHPICLETYDEKVHMHGRHFSSAYAGTIEDPVTGTASGVMGAYYATYVEKDFDHEMELIVEQGQEIHKDGRVTVYVTKDVESEKLQIDIAGTAVYVKEFEVLI", "soluble on expression in E. coli": "soluble"},
      {"sequence": "MKTLPPILSNIIEKVTNTEPANVEDKLPMNILVLGSDEKQGGRSDTIMLVHIQKDFQPIVISIPRDTRVKVEGIKGYSKINAAYAYGKSKLAVKTVEDILGIKIDKYVVVNYEAVEKIVDLVGGVDVEVPFHLYYVDTTPGKELYINIPAGLQHLDGKKAVEFLRWRHNSNGKEYGRGGDLGRIEMQRKLLYALIEKMLKPQNIVRLPLIVQTVSKYTDHNFTKNEIMWFIQNVGKFNTQNIMMTILPGYPKYIDRVSYYILNEEKCRALIDDLNEPEVLKDSMKIKILSKSFDDKATQLKNDLESKGYSNVNLGRVSKLESSEVELKRVNRKYLELLKNDIDLSTYQVVYSPDYSDKFDVYIKVKLEHHHHHH", "soluble on expression in E. coli": "soluble"},
      {"sequence": "MKTNVIIDGDACPVVNSVIELTKGTGIFVTILRSFSHFSQQIQPEHVKIVYVDDGPDAVDYKIVELASNNDIVITQDYGLASLLIDKVHTVMHHKGNIYHSNNIQSLLDQRYLNAQIRRRGLEHHHHHH", "soluble on expression in E. coli": "not soluble"},
      {"sequence": "MKTYSEARARLRWYQGRYIDFDGWYGYQCADLAVDYIYWLLEIRMWGNAKDAINNDFKNMATVYENTPSFVPQIGDVAVFTKGIYKQYGHIGLVFNGGNTNQFLILEQNYDGNANTPAKLRWDNYYGCTHFIRPKYKSEGLMNKITNKVKPPAQKAVGKSASKITVGSKAPYNLKWSKGAYFNAKIDGLGATSATRYGDNRTNYRFDVGQAVYAPGTLIYVFEIIDGWCRIYWNNHNEWIWHERLIVKEVFLEHHHHHH", "soluble on expression in E. coli": "not soluble"},
      {"sequence": "MKVDLNSDLGESFGRYKLGLDDEVMKYITSANVACGWHAGDPLVMRKTVRLAKKNNVQVGAHPGYPDLMGFGRRYMKLTPEEARNYILYQIGALYAFVKAEGLELQHVKPHGALYNAMVKEEDLARAVIEGILDFDKRLIVVTLAGSRVVEIAREMGARVAQEGFADRAYNPDGTLVPRSRPGAVIEDKEEIAERVISMVKDGGIRAINGEWIELEVDTICVHGDNPKAVEITAYIRRRLEEEGVKVLPMGDFIK", "soluble on expression in E. coli": "soluble"},
      {"sequence": "MKVERGDVIRLHYTGRVKETGQIFDTTYEEVAKEAGIYNPKGIYGPVPIIVGAGHVISGLDKRLVGLEVGKKYTLEVPPEEGFGLRDPKLIKVFTMGQFRKQGIVPFPGLEVEVTTDNGRKMKGRVITVSGGRVRVDFNHPLAGKTLIYEVEIVEKIEDPIEKIKALIELRLPMIDRDKVIIEVGEKDVKVNFGEQDVDPKTLILGEILLESDIKFLGYEKVEFKPSVEELLRPKQEEPVEEEKKEEQEESEEAQSS", "soluble on expression in E. coli": "soluble"},
      {"sequence": "MKVGVFTVLYQQLPLEDMLDKVAAMGIEAVELGTGNYPGNAHCDPDALLDQPEKIKALKKAVADRGLVISALSCHGNPLHPDKTFAKQSHDTWRKTVRLAEQLEVPVINAFSGCPGDHPGAKYPNWVTCSWPPDYLEILKWQWEEVVIPYWREEAAFAKEHGITQIAFEMHPGFVVYNPETLLKLREHVGEAIGANFDPSHLLWQGIDPVEAIKLLGREKAIFHVHAKDTYLDEANIRKNGVLDTKHYSQILDRSWVFRTVGYGQSEKMWRDIVSALRAVGYDYVLSIEHEDMLASIDEGLSKAVALLKKVLFKEELPEMWWA", "soluble on expression in E. coli": "not soluble"},
      {"sequence": "MKVISNAEFGGERPLFESHDLRLENVIIRAGESAIKECSNIEAVDCRFEGNYPFWHVHGFVIDRCFFDVGGRSALWYSDNLKMTNTRIDAPKMFREMHDIEIENVEIKDADEVFWRCKNLDIKNLKLHGGTYPFMFSSNIRIDGLESDSKYVFQYVKNVELRNAKITTKDAFWEVENVTIYDSELNGEYLGWHSHNLRLVNCHITGEQPLCYAHDLVLENCTFGPDCDRAFEYSSVQATIKGAIGGVKNPRTGCITAESYGEIILDENIKAPADCKLKLWDEKTCFTD", "soluble on expression in E. coli": "soluble"},
      {"sequence": "MKVLDSRDFAKVKAIAIERASYRNIGALAVYIGSMTGMRISEVLALTWPDIDTKLCVIHVTRSWDHLYGTGFKPTKTDSSVRDIEISPSVIELLNKIHQEQAASYLRTGYRDEDQMIMRDPRHNVITDSACNKALHVIQNKAGIPEDKQITFHGLRHSHVSYLISKGVDIYYISKRLGHSDVTITMKVYGHLLEHHHHHH", "soluble on expression in E. coli": "soluble"},
      {"sequence": "MKVLFVCSGGMSSAIVVNALKKEAEKKGVNMEVHAIGTSEVEEEVKNGWDVVMVAPQVRHRFDSVKKFAEEESIPCGIIPPQAYTPLGGPTLLKTVNDLIR", "soluble on expression in E. coli": "not soluble"},
      {"sequence": "MKVLKCGVMLLSILFVSQLHVYAEENRWTWPVEGQISDYFGTRHGKHYGIDVAAPIGTPVVAIQDGKVTRSYYSSSYGNVVFIKHGEYEAVYAHLNKRYVNQGDYISKGEKIGEVGNTGESRGAHLHLELHQGRWTMAKKNAMNPLLVLSEQRNEVVSSSLYVVQKGDTLVSIARKFSMTLKEIKEKNGLQQELIYPNQQLYVK", "soluble on expression in E. coli": "not soluble"},
      {"sequence": "MKVNPDFFPLTQMAQRFVDQLAQCRRLGLTVLEASEHHVLIELPYSTELIGYPDTGVIHGGVITTLMDTACGSAVVSAIFQKYQSLEISPTLDLRVDYMKPAQPHKSVYGFAECYKLSSNIAFTRAIAYQDSIDDPIAHAVGSFMRISPEMVGDAFRQALIGLEHHHHHH", "soluble on expression in E. coli": "soluble"},
      {"sequence": "MKVSEKTYLSIEEIISLPTVSSTNISDDGKNVAFVKRTANWEDNTYRNHVWIYEKDKGKSYPLTTGDIDSIHPLWSPDSKSIAYLSSGGDGDMKNQIFVKSLDDYSKVKITDEKEGISNFKWDPTGKGFYYITQSKECEEIKKRKELYGDFQHVGKEHQNNCLCYIEMEKVIQNDKEEREINGVYQLTGGKDFYIHGFDISDNGKKVVCMATPSLNDHMNGDLYILDVEARELQQMNVDKLLGGSACFSPEGNKICYSASIREKEYYRNHIQESTLEIYDMNTGEVIQPLTNFDSMVMPLQWTAKGILIRWQDKTNYFIGLLAEDGTVETLREKVDGFIMDASITRDGNHITYNKAITNETFEIYLDDKKITNENSLFEGKLKSNREIISWRSSDGLEIEGVLSTPVEFDANKKYPLLVVIHGGPAWASFPIFSNCFNEKYPIEQFVEKGFIVLEPNYRGSSGYGNEFLKANYRKQGLADYDDVISGVDELVEKGMVDKDRVGVMGWSNGGYISAFCSTFSSRFKAISVGGGITNWSTHYVNTDIPYFIRMYLGNTPWNDPDIYKRTSPMTYIKSACTPTLIQHGEKDARIPITNAYELHQGLKDMEVDTELIIFKGMAYSSDQPGVHVAIMKQNLMWFSHYILGESMEDFSTI", "soluble on expression in E. coli": "not soluble"},
      {"sequence": "MKVSELMTTDPITVSIDDTFSKVMSKMNETGIHQLPVMDGDRYAGMITYSDLLKKRSIQVKSKISNYTISTPTLNADDDVLEAVRLIKDTGLSALPVFQKGKLVGIISRTDIIKNLPQIVDVRDVRIFQIMSSDPIYVYEDDDIEEAFDSMRMLNEVEIPVASRDEKLSGIIRLNSILNILYRQKEKIKYGGYGEKEPVEIKCKSLMDPPVSVDRYAGIDEAVKLMMQYSLHIMPVTDSGKIVGIVDFSDLINMIKTESKEGILIEISGLDVYDEDLYDIAFELSERFLDKFSKMTDVSQGKLLIHVMKYKTQGSTKYSIRTRISAPPLFLVQNGSGWNFAEVLGEIFDRYEERIKKMKEKQ", "soluble on expression in E. coli": "not soluble"},
      {"sequence": "MKVYVGNLGTGAGKGELERAFSYYGPLRTVWIARNPPGFAFVEFEDPRDAEDAVRGLDGKVICGSRVRVELSTGMPRRSRFDRPPARRKLLEVLFNGPLEH", "soluble on expression in E. coli": "soluble"},
      {"sequence": "MKWILLPILFVTLAVSGTALAQPSPTETVKKTVDDVIKIVSDKELKKPQNEKRRRQEIKRAIGTVFDSAEMAQRAMARHWRDRNAAEKKEFVDLFENLLENSYAGKIESYNQEKVVYLKEAIDGDYAEVRSKIVTARRDEYSLDYRLMLKGGKWVVYDIVIEGVSLVSNYRTQFNKIITNQGYAELVKKLRSKNKEISMPLEHHHHHH", "soluble on expression in E. coli": "soluble"},
      {"sequence": "MKWSSMLKVSAISLSVFTAVSAKAQLGEPEIEDLKFGFIKLTDMAPLAVAYEKGFFEDEGLYVTLEAQANWKVLLDRVIDGELDGAHMLAGQPLGATIGVGTKAEVITAFSMDLNGNAITVSNDTWEQMKPHIPKQPDGKPVHPIKADSLKPVVDSYRDKGKSFNMGMVFPVSTHNYELRYWLAAGGIHPGFYAPDSGDNSGQLDADVLLSVTPPPQMPATMEAGTIKGYCVGEPWNQQAVFKGIGTPVVTDYEIWKNNPEKVFGVSKAWAEKNPNTHIRVVKALIRAAHWLDENSNANRQEAVKMLAKSEYVGADADVIANSMTGTFEYEKGDKRDVPDFNVFFRHNATYPYYSDAIWYLTQMRRWGQISSEKSDDWYMDVAKEVYRPDIYQQAAQALIEDGVLSKKDFPDFSAEDGFRPPQTHFIDNIVYDGREPNKYLEKFSIGLKGKDKVMAGDPLEHHHHHH", "soluble on expression in E. coli": "soluble"},
      {"sequence": "MKYDDTINIAFFGLDRRQKTDISRSDSIMILTMDPTHKKLKLSSIMRDTYVNVDGHGMTKITHAYAYGGPQLAIKTINENFNLNIKDYVTVDFYGLEKIIDKLNGVEVDVQPDEVNYLNSYIDEVSKYEKVTPNHVSSAGKQLLDGRQAVAYSRIRYTAGGDFQRTERQRTVLMAVFNKMKAQGKSNMLSMMDELLPYAETDLGSLDIAKYGAKFLSSNIDSIDQERFPVDGYCSGITVDNVWYLKTDLGVTSDQMKKYIFEDVKPTPKASLVNIPAKLEHHHHHH", "soluble on expression in E. coli": "soluble"},
      {"sequence": "MKYDLTTQDSTIKRNNSINDKDFEKLVMDLQPLIIRRIKTFGFNHYDLEDLYQEILIRMYRSVQTFDFSGEQPFTNYVQCLITSVKYDYLRKYLATNKRMDNLINEYRVTYPCAIKRFDVENNYLNKLAIKELICQFKYLSAFEKDVMYLMCEQYKPREIAQLMHVKEKVIYNAIQRCKNKIKRYFKMI", "soluble on expression in E. coli": "not soluble"},
      {"sequence": "MKYIDCAVIGAGPAGLNASLVLGRARKQIALFDNNTNRNRVTQNSHGFITRDGIKPEEFKEIGLNEVMKYPSVHYYEKTVVMITKQSTGLFEIVTKDHTKYLAERVLLATGMQEEFPSIPNVREYYGKSLFSCPYCDGWELKDQPLIIISENEDHTLHMTKLVYNWSTDLVIATNGNELSQTIMDELSNKNIPVITESIRTLQGEGGYLKKVEFHSGLRIERAGGFIVPTFFRPNQFIEQLGCELQSNGTFVIDDFGRTSEKNIYLAGETTTQGPSSLIIAASQGNKAAIAINSDITDERF", "soluble on expression in E. coli": "soluble"}
    ]}
  ]
}
